Values quoted from earlier work in article PMC2663039.
pKd: −log10 of the molar value. Several values for one entry are separate records, joined by “and”; a condition that tells them apart may be missing. Equal entries are not always repeated.

Columns and labels:
NRP1 (Homo sapiens) [1] = target: NRP1 (Homo sapiens) (UniProt O14786); test: SPR
NRP1 (Homo sapiens) [2] = target: NRP1 (Homo sapiens) (UniProt O14786); test: cell-based Scatchard
NRP1 (Homo sapiens) [3] = target: NRP1 (Homo sapiens) (UniProt O14786); test: SPR (BIAcore)
VEGFR2 (Homo sapiens) = VEGFR2 (Homo sapiens) (UniProt P35968)
Sequence of UniProt P35968 (P35968 20-1356): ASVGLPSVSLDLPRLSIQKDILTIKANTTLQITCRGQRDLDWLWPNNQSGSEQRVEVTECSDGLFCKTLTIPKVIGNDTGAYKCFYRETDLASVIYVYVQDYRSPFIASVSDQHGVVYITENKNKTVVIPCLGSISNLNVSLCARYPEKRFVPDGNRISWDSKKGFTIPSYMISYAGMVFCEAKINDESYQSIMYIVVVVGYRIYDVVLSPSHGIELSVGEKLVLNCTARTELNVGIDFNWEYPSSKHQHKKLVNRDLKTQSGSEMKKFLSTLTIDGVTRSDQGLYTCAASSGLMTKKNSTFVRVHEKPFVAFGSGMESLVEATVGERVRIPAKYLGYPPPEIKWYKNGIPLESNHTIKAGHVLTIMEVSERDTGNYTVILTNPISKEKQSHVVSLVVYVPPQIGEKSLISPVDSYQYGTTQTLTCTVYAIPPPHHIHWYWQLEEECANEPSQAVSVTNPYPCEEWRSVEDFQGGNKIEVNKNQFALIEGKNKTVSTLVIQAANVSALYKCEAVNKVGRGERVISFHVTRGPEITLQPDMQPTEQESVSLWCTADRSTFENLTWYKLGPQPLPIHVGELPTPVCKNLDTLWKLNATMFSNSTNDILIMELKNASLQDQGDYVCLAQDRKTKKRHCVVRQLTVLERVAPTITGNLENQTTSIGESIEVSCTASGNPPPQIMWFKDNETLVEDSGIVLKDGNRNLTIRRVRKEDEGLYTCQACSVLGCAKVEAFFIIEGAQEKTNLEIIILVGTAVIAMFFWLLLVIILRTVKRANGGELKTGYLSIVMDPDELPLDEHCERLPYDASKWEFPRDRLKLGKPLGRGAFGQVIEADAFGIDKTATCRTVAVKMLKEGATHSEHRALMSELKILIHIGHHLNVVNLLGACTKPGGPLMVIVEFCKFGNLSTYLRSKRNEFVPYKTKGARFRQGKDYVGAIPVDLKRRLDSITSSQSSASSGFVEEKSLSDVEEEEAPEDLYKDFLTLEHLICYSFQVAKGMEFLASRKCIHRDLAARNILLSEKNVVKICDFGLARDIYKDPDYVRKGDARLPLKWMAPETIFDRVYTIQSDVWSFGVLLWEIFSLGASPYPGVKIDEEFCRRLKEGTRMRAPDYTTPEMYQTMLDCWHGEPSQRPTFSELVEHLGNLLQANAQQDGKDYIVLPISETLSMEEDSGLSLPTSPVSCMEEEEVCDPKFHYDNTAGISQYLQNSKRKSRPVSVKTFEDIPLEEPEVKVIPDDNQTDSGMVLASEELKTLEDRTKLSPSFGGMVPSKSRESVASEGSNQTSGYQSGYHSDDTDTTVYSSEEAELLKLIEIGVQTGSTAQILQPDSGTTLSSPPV

[4] = target: sFlt-1 (baculovirus-expressed) soluble form (Homo sapiens) (UniProt P17948)
[5] = target: sVEGFR1 (sFlt-1, HUVEC-derived) soluble isoform (Homo sapiens) (UniProt P17948)
[6] = target: sFlt-1 (HUVEC-derived) soluble form (Homo sapiens) (UniProt P17948)
VEGFR1 (Homo sapiens) = VEGFR1 (Homo sapiens) (UniProt P17948)
[7] = target: sVEGFR1 (sFlt-1, baculovirus-expressed) soluble isoform (Homo sapiens) (UniProt P17948)

**Q.** With Flt-1 ECD (from UniProt P17948) as the substance, how does the pKd (NRP1 (Homo sapiens) [1]) read?
**A.** The pKd was 8.74.

**Q.** With VEGF121 VEGF121 (from UniProt P15692) as the substance, how does the pKd (NRP1 (Homo sapiens) [1]) read?
**A.** Its pKd is 6.66.

**Q.** With VEGF165 VEGF165 (from UniProt P15692) as the substance, how does the pKd (NRP1 (Homo sapiens) [1]) read?
**A.** Its pKd is 6.92.

**Q.** With “VEGF165 VEGF165 isoform (from UniProt P15692)” as the substance, how does the pKd (NRP1 (Homo sapiens) [2]) read?
**A.** The pKd was 9.70 and 9.49.

**Q.** What about the pKd (NRP1 (Homo sapiens) [3]) of the same substance?
**A.** Its pKd is 7.60.

**Q.** Which results are given for VEGF (from UniProt P15692)?
**A.** pKd (VEGFR2 (Homo sapiens)): 10.00; pKd [4]: 10.70; pKd [5]: 11.00; pKd [6]: 11.00; pKd (VEGFR1 (Homo sapiens)): 10.48; pKd [7]: 10.70
